{
  "source": "patent US8901069B2",
  "about": "“Protein matrix for light-initiated electron transfer” (Research Foundation of The City University of New York, priority 2009, dated 2014)",
  "key": {"[1]": {"experiment": "Reduction potential of polypeptide-bound heme/ferric cofactor vs. hydrogen electrode", "format": "physicochemical", "protocol": "In Example 2, the reduction potential of the peptides prepared in Example 1 is regulated by modulation of peptide ionic charge and cofactor structure. The net charge of the polypeptides is calculated using conventional methods known in the art."}, "[2]": {"experiment": "Heme binding affinity by titration of heme into anaerobic protein solution", "conditions": "oxidized heme; read-out: oxidized heme binding constant"}, "[3]": {"format": "physicochemical", "protocol": "The reduced heme binding constants are also measured for His42→Phe mutants of the polypeptides."}},
  "data": [
    {"molecule": "CGGGEIWKQHEEALKKFEEALKQFEELKKL (listed as Chemical synthesis) [HP-1]", "values": [
      {"measurement": "reduction potential difference spanned by three distinct ferric cofactors bound via bis-histidine ligation", "setting": "[1]; three ferric cofactors, FIG. 4A", "value": "approximately 400 mV"}
    ]},
    {"molecule": "GEIWKQHEDALQKFEEALNQFEDLKQLGGSGCGSGGEIWKQHEDALQKFEEALNQFEDLKQL (protein, listed as Chemical synthesis, homodimeric helix-loop-helix variant of HP-6, recombinantly expressed in E. coli) GEIWKQHEDALQKFEEALNQFEDLKQLGGSGCGSGGEIWKQHEDALQKFEEALNQFEDLKQL", "values": [
      {"measurement": "Kd", "setting": "[2]", "value": 0.22, "unit": "nM"},
      {"measurement": "reduction potential of heme complex, more positive than HP-1-heme complex", "setting": "[1]; difference vs HP-1-heme complex, earlier experiments", "value": 45, "unit": "mV"}
    ]},
    {"molecule": "CC-9: HP-7 peptide with specific Glu→Ala mutations (protein, listed as Chemical synthesis) GEIWKQHEDALQKFEEALNQFEDLKQLGGSGCGSGGEIWKQHADALQKFAEALNQFADLKQL", "values": [
      {"measurement": "increase in bound heme reduction potential compared to HP-7", "setting": "[1]; difference vs HP-7, FIG. 4B", "value": 101, "unit": "mV"}
    ]},
    {"molecule": "CC-10: HP-7 modified to incorporate the preferred consensus sequence (protein, listed as Chemical synthesis) GEIWKQHEDALQKFEEALNQFEDLKQLGGSGCGSGGEILKQHADAAQKIFEALNQFEDLKQL", "values": [
      {"measurement": "Kd", "setting": "[2]", "value": 0.0107, "unit": "nM"},
      {"measurement": "stability of heme-bound complex", "setting": "[3]", "value": "long-term stability"}
    ]}
  ]
}
